Measured values published in US20260070994A1 (PASSION TECHNOLOGY ZHUHAI PARTNERSHIP LIMITED PARTNERSHIP, published 2026).
Residue numbers refer to the chain shown, from its start.

T1: CD25 on the CHO-CD25-overexpressing cell line (human, UniProt P01589 22-272)
T1 chain: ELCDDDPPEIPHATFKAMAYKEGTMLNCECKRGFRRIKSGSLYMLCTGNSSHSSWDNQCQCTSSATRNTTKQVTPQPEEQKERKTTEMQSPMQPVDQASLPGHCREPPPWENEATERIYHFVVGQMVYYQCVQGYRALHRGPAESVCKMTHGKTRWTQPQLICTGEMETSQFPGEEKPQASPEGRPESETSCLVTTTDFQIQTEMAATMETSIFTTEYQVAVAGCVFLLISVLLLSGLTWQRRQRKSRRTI

T2: CD25 on the CHO-CD25-overexpressing cell line (human, UniProt P01589 22-272)
T2 sequence (looked up): T1 chain

T3: CD25-His recombinant protein (human, UniProt P01589 22-240)
T3 chain: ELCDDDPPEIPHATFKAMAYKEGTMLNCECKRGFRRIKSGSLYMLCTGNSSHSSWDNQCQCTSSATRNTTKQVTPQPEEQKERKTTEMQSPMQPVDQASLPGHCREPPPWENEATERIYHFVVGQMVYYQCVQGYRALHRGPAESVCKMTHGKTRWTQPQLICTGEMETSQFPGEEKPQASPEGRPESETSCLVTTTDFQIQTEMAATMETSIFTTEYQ

T4: CD25-His recombinant protein (human, UniProt P01589 22-240, limits assumed)
T4 construct: Recombinant antigen made by the applicant; also called CD25-His antigen; CD25 antigen; not shown: His tag
T4 sequence (looked up): T3 chain

B1: A07-HM5 (VHH)
VHH: EVQLVESGGGLVQPGGSLRLSCAVSGFTLDYYAIGWFRQAPGKGLEGVSCISGSDGRTAYADSVKGRFTISKDNAKNTVYLQMNSLRAEDTAVYYCAADPGYYCAGEVRYAGSLYDYWGQGTLVTVSS
B2: clone A07 (VHH)
VHH: B1 VHH with V12A, G44E, L45R, A61T, R87K, A88P, L123Q
notes: Recombinant antibody from a eukaryotic expression vector (293F); also called A-A7; A-A07-VHH
B3: A07-HM6 (VHH)
VHH: B1 VHH with V5L, A61G
B4: G10 (VHH)
VHH: DVQLVESGGGLAQPGGSLRLSCAASGFTFSNYAMNWLRQAPGKGLEWVSGIYSDSSGTYYADSVKGRFTISRDNAKNTLYLQMNSLKPEDTALYYCAKASNSGSYYPWDDDWGQGTQVTVSA
B5: A05 (VHH)
VHH: QVQLVESGGGLAQPGGSLRLSCAASGFTFSIYAMSWARQAPGKGLEWVSGIYSDSSYTYYADSVKGRFTISRDNAKNTLYLQMNSLKPEDTALYYCLKARGSGSYYPFDDYRGQGTQVTVSS
B6: D01 (VHH)
VHH: QVQLVESGGGLAQPGGSLRLSCAASGFTFSNFAVSWARQVAGEGFEWVSGVYSDGDTYYADSVKDRFIISRDNAKNTLYLQMNSLKPEDTALYYCGAARGRLCSSIMTCDYWGQGTQVTVSS
B7: A11 (VHH)
VHH: DVQLVESGGGLVQPGGSLRLSCAASGFTFSSYAMSWYRQAPGKERELVAYITTSPGYTTYTDSVKGRFTISRDNAKNTVYLQMNSLKPDDTAVYYCNAWRGAPRGDYWGQGTQVTVSS
B8: E08 (VHH)
VHH: AVQLVESGGGLVQPGGSLRLSCAASGFTFSSYPMGWYRQAPGEECELVAGITSAGGSTNYADSVKGRFTISRDNAKNTVYLQMNSLKPEDTAVYYCNTDPRYYTDSRGPCSWGQGTQVTVSS
B9: B04 (VHH)
VHH: QVQLVESGGGLVQPGGSLRLSCATSGFTLDYYAIGWFRQAPGKEREGVSCISSSDGTTAYADSVKGRFTISTDNARNTVYLQMNSLKPEDTAVYYCAADLGYYCADNVRYAGSLYDYWGQGTQVTVSS
B10: B10 (VHH)
VHH: EVQLVESGGGLVQPGGSLRLSCAVFGVTLDSYAIGWFRQAPGKEREGVSCISTSDGRTWETDAVLGRFTISRDNAKNTVYLQMNDLKPEDTAVYYCGADGRDWCSAHVYSRYEYDYSGQGTQVTVSS
notes: Tested as transfection supernatant
B11: D04 (VHH)
VHH: QVQLVESGGGLVQPGGSLRLSCAASGFTFSSSAVSWARLTPGKRLEWVSAIASDGSTYYADSMQGRFTISRDNAKNTVYLQMNSLKPEDTAVYYCAIPRDGLVPVFGIDYWGQGTQVTVSS

Target: T1, CD25 on the CHO-CD25-overexpressing …
Test: FACS

EC50 [µg/mL]	Binder
0.632	B1
0.399	B2
0.772	B3

Target: T2, CD25 on the CHO-CD25-overexpressing …
Test: cell-based or functional assay

ADCC EC50 [µg/mL]	Binder
0.0074	B1
0.0186	B2
0.0047	B3

Target: T3, CD25-His recombinant protein
Test: BLI

Kd [nM]	Binder
9.62	B1
6.67	B2
14.6	B3

Target: T1, CD25 on the CHO-CD25-overexpressing …
Test: FACS
Remark: another data set of the same source

EC50 [µg/mL]	Binder
1.88	B4
1.59	B5
1.27	B6
2.8	B7
1.14	B8
2.8	B2
7.02	B9

Target: T4, CD25-His recombinant protein
Test: ELISA on CD25 antigen, transfection supernatant 5 µL
Description: The CD25-His protein was coated on a 96-well microplate. After the candidate antibodies were transiently transfected into 293F cells for 48 hours, the supernatant was collected and ELISA detection was performed.

ELISA OD	Binder
4.38	B10

Target: T4, CD25-His recombinant protein
Test: ELISA on human CD25 antigen, antibody 0.016 µg/ml

ELISA OD	Binder
0.2	B2

Target: T4, CD25-His recombinant protein
Test: ELISA on human CD25 antigen, antibody 10 µg/ml

ELISA OD	Binder
4.39	B2

Target: T3, CD25-His recombinant protein
Test: ELISA

EC50 [µg/mL]	Binder
0.0193	B4
0.0281	B11
0.0177	B5
0.0261	B6
0.0128	B7
0.00875	B8
0.0559	B2
0.164	B9
